The record followed here is patent publication US10143730B2, “Peptides and combination of peptides for use in immunotherapy against various cancers” (immatics biotechnologies GmbH, priority 2015, dated 2018).

In this experiment the target is T1, HLA-A*02 (Homo sapiens, UniProt P04439, D140Y/D185E/D98H/E176V/E277Q/G131W/G231S/I119V/I121R/I166T/I218V/L300P/N151K/N90K/P208A/P217A/Q86G/Q94H/R138H/R169H).
T1 construct: made in house
As to the kind of experiment: MHC binding assay, UV-ligand exchange with beta2m ELISA (peptide exchange yield). Conditions: binding to HLA-A*02. The source says: Candidate peptides for T cell based therapies according to the present invention were further tested for their MHC binding capacity (affinity). The individual peptide-MHC complexes were produced by UV-ligand exchange, where a UV-sensitive peptide is cleaved upon UV-irradiation, and exchanged with the peptide of interest as analyzed. Only peptide candidates that can effectively bind and stabilize the peptide-receptive MHC molecules prevent dissociation of the MHC complexes. To determine the yield of the exchange reaction, an ELISA was performed based on the detection of the light chain (β2m) of stabilized MHC complexes. The assay was performed as generally described in Rodenko et al. (Rodenko et al., 2006).
96 well MAXISorp plates (NUNC) were coated over night with 2 ug/ml streptavidin in PBS at room temperature, washed 4× and blocked for 1h at 37° C. in 2% BSA containing blocking buffer. Refolded HLA-A*02:01/MLA-001 monomers served as standards, covering the range of 15-500 ng/ml. Peptide-MHC monomers of the UV-exchange reaction were diluted 100 fold in blocking buffer. Samples were incubated for 1h at 37° C., washed four times, incubated with 2 ug/ml HRP conjugated anti-32m for 1h at 37° C., washed again and detected with TMB solution that is stopped with […]. Absorption was measured at 450 nm. Candidate peptides that show a high exchange yield (preferably higher than 50%, most preferred higher than 75%) are generally preferred for a generation and production of antibodies or fragments thereof, and/or T cell receptors or fragments thereof, as they show sufficient avidity to the MHC molecules and prevent dissociation of the MHC complexes.
As to “102 (VLLDIQEVFQI; listed as Homo sapiens) [compound 102]”, the “Peptide exchange (MHC class I binding score, peptide exchange yield)” value (“Peptide exchange” below) is listed as “+++ (50%-75% = +++)”.
For “109 (SLDPSVTHL; listed as Homo sapiens) [compound 109]”, the “Peptide exchange” value was “++ (20%-49% = ++)”.
To “79 (VTFKEYVTV; listed as Homo sapiens) [compound 79]” belongs “++ (20%-49% = ++)”.
“120 (VTPVTVSAV; listed as Homo sapiens) [compound 120]”: the “Peptide exchange” value is “+ (<20% = +)”.
With “152 (MMVGDLLEV; listed as Homo sapiens) [compound 152]”, the “Peptide exchange” value was “+++ (50%-75% = +++)”.
In the case of “119 (FIIQGLRSVGA; listed as Homo sapiens) [compound 119]”, the “Peptide exchange” value was “+++ (50%-75% = +++)”.
For “24 (TLDEKVAEL; listed as Homo sapiens) [compound 24]”, the “Peptide exchange” value is listed as “+++ (50%-75% = +++)”.
To “136 (FLFGGVLMTL; listed as Homo sapiens) [compound 136]” belongs “++ (20%-49% = ++)”; to “28 (SLPNGKPVSV; listed as Homo sapiens) [compound 28]”, “+++ (50%-75% = +++)”.
With “101 (ALADFMLSL; listed as Homo sapiens) [compound 101]” the entry was “+++ (50%-75% = +++)”; with “104 (ALISWQPPRA; listed as Homo sapiens) [compound 104]”, “+++ (50%-75% = +++)”.
To “238 (GLYERPTAA; listed as Homo sapiens) [compound 238]” belongs “++ (20%-49% = ++)”.
In the case of “98 (RLFPDFFTRVAL; listed as Homo sapiens) [compound 98]”, the “Peptide exchange” value was “++ (20%-49% = ++)”.
With “9 (FLVDGSYSI; listed as Homo sapiens) [compound 9]” the entry was “+++ (50%-75% = +++)”; with “108 (ILLKNLVTI; listed as Homo sapiens) [compound 108]”, “++ (20%-49% = ++)”; with “78 (TVVTRLDEI; listed as Homo sapiens) [compound 78]”, “++ (20%-49% = ++)”.
With “67 (TLLQRLTEV; listed as Homo sapiens) [compound 67]” the entry was “+++ (50%-75% = +++)”; with “258 (LLSERFINV; listed as Homo sapiens) [compound 258]”, “++++ (> = 75% = ++++)”; with “132 (ILGEVLAQL; listed as Homo sapiens) [compound 132]”, “+++ (50%-75% = +++)”.
To “234 (LLSPHNPAL; listed as Homo sapiens) [compound 234]” belongs “+++ (50%-75% = +++)”; to “40 (VLIDPQWVLTA; listed as Homo sapiens) [compound 40]”, “+++ (50%-75% = +++)”.
For the substance “77 (TLIDEQDIPLV; listed as Homo sapiens) [compound 77]”, the “Peptide exchange” value was “+++ (50%-75% = +++)”.
To “253 (ALAELIDNSL; listed as Homo sapiens) [compound 253]” belongs “+++ (50%-75% = +++)”; to “142 (ILVEGISTV; listed as Homo sapiens) [compound 142]”, “+++ (50%-75% = +++)”.
As to “70 (LLLGDSALYL; listed as Homo sapiens) [compound 70]”, the “Peptide exchange” value is listed as “+++ (50%-75% = +++)”.
To “128 (TQSPATLSV; listed as Homo sapiens) [compound 128]” belongs “++ (20%-49% = ++)”; to “71 (VLHSKFWVV; listed as Homo sapiens) [compound 71]”, “+++ (50%-75% = +++)”.
To “22 (FVDPNTQEKV; listed as Homo sapiens) [compound 22]” belongs “++ (20%-49% = ++)”; to “89 (QLAPVFQRV; listed as Homo sapiens) [compound 89]”, “++ (20%-49% = ++)”; to “134 (GLAVPTPSV; listed as Homo sapiens) [compound 134]”, “+++ (50%-75% = +++)”.
Take “72 (FLTAINYLL; listed as Homo sapiens) [compound 72]”: the “Peptide exchange” value is “+++ (50%-75% = +++)”.
With “83 (GQASYFYVA; listed as Homo sapiens) [compound 83]” the entry was “++ (20%-49% = ++)”.
As to “68 (SLSNRLYYL; listed as Homo sapiens) [compound 68]”, the “Peptide exchange” value is “+++ (50%-75% = +++)”.
On to “75 (AVIKFLELL; listed as Homo sapiens) [compound 75]”, for which the “Peptide exchange” value is on record as “+++ (50%-75% = +++)”.
For the substance “105 (ALLGTKILL; listed as Homo sapiens) [compound 105]”, the “Peptide exchange” value is listed as “+++ (50%-75% = +++)”.
With “64 (SLFPDSLIV; listed as Homo sapiens) [compound 64]” the entry was “++ (20%-49% = ++)”; with “236 (STIAILNSV; listed as Homo sapiens) [compound 236]”, “+++ (50%-75% = +++)”.
“254 (KLQGKLPEL; listed as Homo sapiens) [compound 254]”: the “Peptide exchange” value is “++ (20%-49% = ++)”.
On to “107 (LLVPTSGIYFV; listed as Homo sapiens) [compound 107]”, for which the “Peptide exchange” value is on record as “+++ (50%-75% = +++)”.
With “45 (SLTEVSLPL; listed as Homo sapiens) [compound 45]” the entry was “+++ (50%-75% = +++)”; with “265 (NTCPYVHNI; listed as Homo sapiens) [compound 265]”, “+++ (50%-75% = +++)”.
Turning to “130 (SLLGGTFVGI; listed as Homo sapiens) [compound 130]”, the “Peptide exchange” value was “+++ (50%-75% = +++)”.
With “55 (SLATKIVEA; listed as Homo sapiens) [compound 55]” the entry was “+++ (50%-75% = +++)”; with “103 (YLVSEIFKA; listed as Homo sapiens) [compound 103]”, “+++ (50%-75% = +++)”.
To “250 (SLAPATPEV; listed as Homo sapiens) [compound 250]” belongs “+++ (50%-75% = +++)”; to “36 (SLADTNSLAVV; listed as Homo sapiens) [compound 36]”, “+++ (50%-75% = +++)”.
